Residue numbers refer to the chain shown, from its start. Values belong to the molecule of their own block, whether it stands above or below them.
Columns and labels:
[1] = test system: human PBMCs (CD4 T, CD8 T, NK cells); assay: Restoration of IFN-γ and IL-2 production of NECA-suppressed T cells and NK cells (intracellular cytokine staining); format: cell-based; conditions: NECA; test substance 2 μg/ml
Protocol: (§1) Two hundred thousand (2×10^5) human peripheral blood mononuclear cells (PBMCs) human PBMC in complete IMDM medium were aliquoted into each well in a 96-well plate and the cells in the 96-well plate were pre-incubated with antibodies or small molecule inhibitors at indicated concentration for 90 minutes, followed by addition of T cell activator anti-CD3/28 dynabeads (Gibco, Cat #11132D) at ratio of 1:4 (Beads: PBMC, v/v) and NECA (DiscoverX, Cat #92-1191, final concentration […]). Cells were cultured in an incubator at 37° C., 5% CO2 for 24 hours. Cells were then collected and stimulated with anti-CD3/28 dynabeads in the presence of GolgiPlug™ Protein Transport Inhibitor (BD Biosciences, Cat #555028) according to manufacturer's manual for 4 hours. Thereafter, cells were incubated with human TruStain FcX block (Biolegend, Cat #422302) and True-Stain monocyte blocker (Biolegend, Cat #426103) for 15 minutes according the manufacturer's manual, and cells were then stained with surface markers PE-anti-CD4 (Biolegend, Cat #300550), PerCP-cy5.5-anti-CD8 (Biolegend, Cat #301032), APC/cy7-anti-CD3 (Biolegend, Cat #300426) and PE/cy7-anti-CD56 (Biolegend, Cat #362509), PE/cy7-anti-CD56 (Biolegend, Cat #362509), BV711-anti-CD25 (Biolegend, Cat #302636) and BV605-anti-CD69 (Biolegend, Cat #31938 After wash with FACS buffer, cells were stained with BV421-anti-IFN-γ (BD Bioscience, Cat #562988) and APC anti-IL-2 (BD Bioscience, cat #551383) using intracellular cytokine staining kit (BD Biosciences, cat #555028) following manufacturer's instruction. Stained samples were analyzed on FACSAria III machine. Data were analyzed using Flowjo software.

[2] = test system: human PBMCs (CD4 and CD8 T cells); assay: Restoration of CD25 and CD69 activation markers on NECA-suppressed CD4 and CD8 T cells; format: cell-based; conditions: test substance 2 μg/ml
Protocol: as §1

[3] = molecular target: human adenosine A2A receptor (A2aR) (human, UniProt P29274 1-412); assay: flow cytometry, HEK293-hA2aR cells, supernatant 1 ug/ml
human A2aR = human A2aR (Homo sapiens, UniProt P29274); assay: Binding of humanized anti-A2aR antibodies in transfected Expi293F cell supernatant to human A2aR on HEK293 cells (FACS, MFI); conditions: supernatant with 1 μg/ml antibody; HEK293 overexpressing human A2aR; heavy chain (row) x light chain
Protocol: Briefly, HEK293 cells that stably overexpress human A2aR (HEK-hA2aR OCL, BPS Bioscience, Cat. 79381) were collected from fresh culture. Cells were then resuspended in FACS buffer (1×DPBS/1% FBS) at 10^6/ml concentration. One hundred microliters (100 μl) of cells were aliquoted into each well of a 96 well plates. After centrifugation, cell pellets in each well were then resuspended with 100 μl normalized supernatant samples containing 1 μg/ml humanized anti-A2aR monoclonal antibody variants collected from transfected Expi293 cell culture. The supernatants were mixed with the cells and incubated on ice for 1 hours. After washing the mixtures of the supernatants containing expressed antibodies and the A2aR-expressing cells with FACS buffer, one hundred microliters (100 μl) of 1:400 diluted PE-conjugated anti-human Fc secondary antibody (Jackson Immuno Research, Cat. 109-116-098) was added to each well followed by an incubation for 30 minutes on ice. After washes with FACS buffer, stained cells were resuspended in 150 μl of 7-AAD (Biolegend, Cat. 420404) diluted 1:100 in 1×DPBS buffer and incubate for 5 minutes in the dark at room temperature before FACS analysis. The mean fluorescence intensity (MFI) was obtained using Guava 11HT or 5HT (Luminex). Data was analyzed using Flowjo software.
As shown in Tables 22-24, exemplary humanized anti-A2aR antibodies bind to A2aR expressed on a cell surface. A greater MFI value means stronger binding of the exemplary antibody to A2aR expressed on a cell surface.

human adenosine A2A receptor (A2aR), sequence (P29274 whole entry): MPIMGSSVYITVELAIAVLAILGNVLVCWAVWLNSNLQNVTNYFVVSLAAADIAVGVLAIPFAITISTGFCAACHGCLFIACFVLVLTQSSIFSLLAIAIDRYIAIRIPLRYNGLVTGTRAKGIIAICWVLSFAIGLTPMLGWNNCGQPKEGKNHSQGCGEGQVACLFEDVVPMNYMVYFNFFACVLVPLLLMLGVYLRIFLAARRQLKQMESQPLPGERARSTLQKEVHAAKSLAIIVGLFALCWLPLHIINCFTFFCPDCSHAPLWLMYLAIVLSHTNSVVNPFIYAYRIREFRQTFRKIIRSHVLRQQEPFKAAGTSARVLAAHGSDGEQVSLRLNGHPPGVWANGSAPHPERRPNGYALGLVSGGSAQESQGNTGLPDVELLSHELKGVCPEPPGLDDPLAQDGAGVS
human A2aR, sequence (P29274 whole entry): as above

Molecule: Cc1cc(-c2nnc(N)nc2-c2ccc(F)cc2)cc(Cl)n1 [AZD4635]
- % of cells IFNγ+, CD4 T cells [1]: 3.41%
- % of cells IFNγ+, CD8 T cells [1]: 13.3%
- % of cells IFNγ+, NK cells [1]: 8.91%
- % of cells IL-2+, CD4 T cells [1]: 10.4%
- % of cells IL-2+, CD8 T cells [1]: 2.57%
- % of cells CD25+, CD4 T cells [2]: 48.8%
- % of cells CD25+, CD8 T cells [2]: 26%
- % of cells CD69+, CD4 T cells [2]: 48.1%
- % of cells CD69+, CD8 T cells [2]: 49.1%

- MFI [3]: 110 MFI
B1: Hu3F8-H4/Hu3F8-L1 (antibody, human IgG1, V domains shown)
VH: EVQLVQSGAEVKKPGASVKVSCKASGFTFTRYWMNWVRQAPGQGLEWIGRIDPSDSETHYNHKFWGRATLTVDKSTSTVYMELSSLRSEDTAVYYCLRSLYGKGDYWGQGTTVTVSS
VL: DVVMTQSPLSLPVTLGQPASISCRSSQSIVHSNGNTYLEWFQQRPGQSPRRLIYKVSNRFSGVPDRFSGSGSGTDFTLKISRVEAEDVGVYYCYQGSHVPLTFGGGTKVEIK

- MFI [3]: 131 MFI
B2: Hu3F8-H4/Hu3F8-L2 (antibody, human IgG1, V domains shown)
VH: B1 VH
VL: B1 VL with F41Y

- MFI [3]: 158 MFI
B3: Hu3F8-H6/Hu3F8-L1 (antibody, human IgG1, V domains shown)
VH: EVQLVQSGAEVKKPGESLRISCKASGFTFTRYWMNWVRQMPGKGLEWIGRIDPSDSETHYNHKFWGHATLSVDKSSSTVYLQWSSLKASDTAMYYCLRSLYGKGDYWGQGTTVTVSS
VL: B1 VL

- MFI [3]: 147 MFI
B4: Hu3F8-H5/Hu3F8-L2 (antibody, human IgG1, V domains shown)
VH: B1 VH with H62A
VL: B1 VL with F41Y

- MFI [3]: 165 MFI
B5: Hu1B5-H2/Hu1B5-L1 (antibody, human IgG1, V domains shown)
VH: B1 VH with A24T, Y32F, I48M, S54Y, H59Q, G66D, A68V, L70M, K74T, L97G
VL: B1 VL with Y94F

- MFI, binding to human A2aR on cell surface (3F8-12E9 derived) (human A2aR): 93
B6: Hu3F8-H3/Hu3F8-L2: humanized anti-A2aR IgG1 FES antibody; HCVR SEQ ID NO:66, LCVR SEQ ID NO:85 (antibody, V domains shown)
VH: B1 VH with K74T
VL: B1 VL with F41Y

- MFI, binding to human A2aR on cell surface (3F8-12E9 derived) (human A2aR): 147
B7: Hu3F8-H5/Hu3F8-L2: humanized anti-A2aR IgG1 FES antibody; HCVR SEQ ID NO:68, LCVR SEQ ID NO:85 (antibody, V domains shown)
VH: B1 VH with H62A
VL: B1 VL with F41Y

- MFI [3]: 146 MFI
B8: Hu3F6-H2/Hu3F6-L2 (antibody, human IgG1, V domains shown)
VH: B1 VH with A24T, T28A, R31S, I48M, T58A, N61H, A68V, L70M, K74T, Q109H
VL: B1 VL with I29L, S32R, F41Y

- MFI [3]: 62 MFI
B9: Hu1B5-H1/Hu1B5-L2 (antibody, human IgG1, V domains shown)
VH: QVQLVQSGAEVKKPGASVKVSCKASGFTFTRFWMNWVRQAPGQGLEWMGRIDPYDSETQYNHKFWDRVTMTRDTSTSTVYMELSSLRSEDTAVYYCGRSLYGKGDYWGQGTTVTVSS
VL: B1 VL with F41Y, Y94F

- MFI [3]: 182 MFI
B10: Hu1B5-H4/Hu1B5-L1 (antibody, human IgG1, V domains shown)
VH: B1 VH with A24T, Y32F, S54Y, H59Q, G66D, T76S, L97G
VL: B1 VL with Y94F

- MFI [3]: 152 MFI
B11: Hu1B5-H3/Hu1B5-L1 (antibody, human IgG1, V domains shown)
VH: B9 VH with Q1E, A24T, M48I, V68A, M70L, R72V, T76S
VL: B1 VL with Y94F

- MFI [3]: 82 MFI
B12: Hu1B5-H5/Hu1B5-L1 (antibody, human IgG1, V domains shown)
VH: B1 VH with A24T, Y32F, S54Y, H59Q, N61A, G66D, T76S, L97G
VL: B1 VL with Y94F

- MFI, binding to human A2aR on cell surface (3F8-12E9 derived) (human A2aR): 64
B13: Hu3F8-H3/Hu3F8-L1: humanized anti-A2aR IgG1 FES antibody; HCVR SEQ ID NO:66, LCVR SEQ ID NO:84 (antibody, V domains shown)
VH: B1 VH with K74T
VL: B1 VL

- MFI [3]: 58 MFI
B14: Hu3F8-H5/Hu3F8-L1 (antibody, human IgG1, V domains shown)
VH: B1 VH with H62A
VL: B1 VL

- MFI, binding to human A2aR on cell surface (3F8-12E9 derived) (human A2aR): 131
B15: Hu3F8-H4/Hu3F8-L2: humanized anti-A2aR IgG1 FES antibody; HCVR SEQ ID NO:67, LCVR SEQ ID NO:85 (antibody, V domains shown)
VH: B1 VH
VL: B1 VL with F41Y

- MFI, binding to human A2aR on cell surface (3F8-12E9 derived) (human A2aR): 158
B16: Hu3F8-H6/Hu3F8-L1: humanized anti-A2aR IgG1 FES antibody; HCVR SEQ ID NO:70, LCVR SEQ ID NO:84 (antibody, V domains shown)
VH: B3 VH
VL: B1 VL

- MFI, binding to human A2aR on cell surface (3F8-12E9 derived) (human A2aR): 58
B17: Hu3F8-H5/Hu3F8-L1: humanized anti-A2aR IgG1 FES antibody; HCVR SEQ ID NO:68, LCVR SEQ ID NO:84 (antibody, V domains shown)
VH: B1 VH with H62A
VL: B1 VL

- MFI, binding to human A2aR on cell surface (3F8-12E9 derived) (human A2aR): 38
B18: Hu3F8-H2/Hu3F8-L2: humanized anti-A2aR IgG1 FES antibody; HCVR SEQ ID NO:65, LCVR SEQ ID NO:85 (antibody, V domains shown)
VH: B1 VH with I48M, A68V, L70M, K74T
VL: B1 VL with F41Y

- MFI [3]: 200 MFI
B19: Hu3F6-H3/Hu3F6-L2 (antibody, human IgG1, V domains shown)
VH: B1 VH with A24T, T28A, R31S, T58A, N61H, K74T, T76S, Q109H
VL: B1 VL with I29L, S32R, F41Y

- MFI [3]: 178 MFI
B20: Hu1B5-H6/Hu1B5-L1 (antibody, human IgG1, V domains shown)
VH: B3 VH with A24T, Y32F, S54Y, H59Q, G66D, L97G
VL: B1 VL with Y94F

- MFI [3]: 145 MFI
B21: Hu1B5-H2.1/Hu1B5-L1 (antibody, human IgG1, V domains shown)
VH: B9 VH with Q1E, A24T, M48I, R72V
VL: B1 VL with Y94F
